First the molecules themselves.
B1: YANG-1110 (antibody, V domains shown)
VH: QVQLAESGGGVVQPGRSLRLSCVVSGFTFSNYGMHWVRQAPGKGLEWVVFISNDGSNEDFVDSVKGRFTISRDNSKNTLYLQMNSLRAEDTAVYYCAKGGYFYGSGNYYYYYGMDVWGQGTTVTVSS
VL: QPVLTQSSSASASLGSSVKLTCTLSSVHSNHIIAWHQQQPGKAPRYLMKLEGSGRYSKGSGVPDRFSGSSSEADRYLTISNLQSEDEADYYCETWDNNTYVFGSGTKVTVL
B2: YANG-1109 (antibody, V domains shown)
VH: EVQLVESGGGLIQPGGSLRLSCGVSGLTVSRNYMNWVRQAPGKGLEWVSVIYSGGSTFYADSVKGRFTISRDNSKNTLYLQMISLRAEDSGVYYCAREGFGMDVWGQGTTVTVSS
VL: DIQLTQSPSFLSASVGDRVTITCWASQGISNYLAWYQQKPGKAPKLLIYSASTLQSGVPSRFSGSGSGTEFTLTISNLQPADIATYYCQLLNSHPCSFGQGTKLEIK
B3: YANG-1105 (antibody, V domains shown)
VH: EVQVVESGGGLIQPGGSLRLSCAASGITVSRNYMNWVRQAPGKGLEWVSVIYSGGSTFYADSVKGRFTISRDNSKNTLYLQMNSLRADDTGVYYCAREGYGMDVWGQGTTVTVSS
VL: DIQLTQSPSFLSASVGDRVTITCWASQGISSYLAWYQQKPGKAPKLLIYSASTLQSGVPSRFSGSGSGTEFTLTINSLQPEDFATYYCQQLNSHPCSFGQGTKLEIK
B4: YANG-1103 (antibody, V domains shown)
VH: EVQMVESGGGLIQPGGSLRLSCAASGLTVSSNYMSWVRQAPGKGLEWVSVIYSGGSTFYADSVKDRFTISRDNSKNTLYLQMNSLRAEDTAVYYCARENWNYVFDCWGQGTLVTVSS
VL: DIQLTQSPSFLSASVGDRVTITCWASQGISSYLAWYQQKPGKAPKLLIYAASTLQSGVPSRFSGSGSGTEFTLTISSLQPEDFATYYCQQLNSHPIIFGQGTRLEIK
B5: YANG-1107 (antibody, V domains shown)
VH: EVQMVESGGGLIQSGGSLRLSCAASGLSVSSNYMSWVRQAPGKGLEWVAVIYSGGSIFYADSVKDRFTISRDNSKNTLYLQMNSLRAEDTAVYYCARENWNYVFDCWGQGTLVTVSS
VL: DIQLTQSPSFLSASVGDRVTITCWASQGISTYLAWYQQKPGKAPKLLIYAASTLQSGVPSRFSGSGSGTEFTLTISSLQPEDFATYYCQQLSSHPIIFGQGTRLEIK
B6: YANG-1108 (antibody, V domains shown)
VH: QVQLVESGGGVVHPGRSLRLSCVVSGFTFSGYGMYWVRQAPGKGLEWVAVISKDGSDKYYADSVKGRFTISRDNSKNTLNLQMNSLRAEDTAVFYCAKERTFQGSGSYYNNYFYYGMDVWGQGTTVTVSS
VL: AIQLTQSPSSLSASVGDRVTITCRASQGISSALAWYQQKPGKAPNLLIYDASSLESGVPSRFSGSGFGTDFTLTINSLQPEDFASYYCQQFKSYPLTFGGGTKVEIK
B7: YANG-1102 (antibody, V domains shown)
VH: QVQLQESGPGLVKPSGTLSLTCAVSGGSISTTNWWSWVRQSPGRGLEWIGEIFHIGYTNYNPSLKSRVTISVDKSKNQFSLKLNSVTVADTAVYYCARRVVMDTAMAHFDCWGQGTLVTVSS
VL: QSVLTQPPSVSGAPGQRVTISCTGSSSNIGAGYDVHWYQHLPGTAPKLLIYININRPSGVPDRFSGSKSGTSASLVIAGLQAEDGADYYCQSYDSSLSGWVFGGGTRLTVL
B8: YANG-1106 (antibody, V domains shown)
VH: EVQLVESGGGLIQPGGSLRLSCAASEFIVSRNYMSWVRQAPGKGLEWVSVIYSGGSTFYADSVRGRFTISRDNSKNTLYLQMNSLRAEDTAVYYCARDYGDQYFDYWGQGTLVTVSS
VL: EMVMTQSPATLSVSPGEKATLSCRASQTVSTNLAWYQQKPGQSPRLLIYGASTRATGIPARFSGSGSGTEFTLTISSLQSEDFAIYYCQQYVDWPRTFGQGTTVEIK
B9: YANG-1111 (antibody, V domains shown)
VH: EVQLVESGGGLIQPGGSLRLSCAASGFTFSSYSINWVRQAPGKGLEWVSFISGSSTTIYYADSVKGRFTISRDSAKNSLYLQMNSLRDEDTAVYYCARGLRSSIAPRPDYFDSWGQGILVTVSS
VL: SYVLTQPPSVSVAPGKTARITCGGNNIGSKGVHWYQQKPGQAPVLVIYYDSDRPSGIPERFSGSNSGNTATLTISRVEAGDEADYSCQVWDSSSDHPVFGGGTKLTVQ
B10: YANG-1101 (antibody, V domains shown)
VH: QLQLQESGPGLVKPSETLSLTCTVSGGSISSSSYYWGWIRQPPGKGLEWIGSIYYSGSIYYNPSLKSRVTISVDTSKNQFSLKLSSVTAADTAVYYCASWFGEFLKADAFDIWGQGTMVTVSS
VL: QSALTQPASVSGSPGQSITISCTGTSSDVGGYSYVSWYQQHPGKAPKLMIYDVSKRPSGVSNRFSGSKSGNTASLTISGLQAEDEADYYCCSYAGGSTFVVFGGGTKLTVL
B11: IMPI-047 (antibody, V domains shown)
VH: EVQLVESGGGLIQPGGSLRLSCAASGFTVSSNYMNWVRQAPGKGLEWVSVIYSGGSTYYADSVKGRFTISRDNSKNTLYLQMNSLRTEDTAVYYCARDLVAYGMDVWGQGTTVTVSS
VL: DIQLTQSPSFLSASVGDRVTITCWASQGISSYLAWYQQKPGKAPKVLIYAASTLQSGVPSRFSGSGSGTEFTLTISSLQPEDFATYYCQLLNSNPLTFGGGTKVEIK
B12: IMPI-037 (antibody, V domains shown)
VH: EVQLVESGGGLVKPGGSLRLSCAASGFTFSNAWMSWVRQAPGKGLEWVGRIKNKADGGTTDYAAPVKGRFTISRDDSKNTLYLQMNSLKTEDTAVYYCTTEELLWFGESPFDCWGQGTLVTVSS
VL: DIQLTQSPSFLSASVGDRVTITCWASQGINSYLAWYQQKPGKAPKLLIYAASTLQSGVPSRFSGSGSGTEFTLTISSLQPEDFTTYYCQQFNDYPRTFGPGTKVEIK
B13: IMPI-017 (antibody, V domains shown)
VH: EVQLVESGGGLIQPGGSLRLSCAAAGLTVSSNYMNWVRQVPGKGLEWVSVIYSGGSTYYADSVKGRFTISRDNSKNTLYLQMNSLRAEDTAVYYCARDLGTLGMDVWGQGTTVTVSS
VL: DIQLTQSPSFLSASVGDRVTITCWASQGISTYLAWYQQKPGKAPKLLIYAASTLQSGVPSRFSGSGSGTEFTLTISSLQPEDFATYYCQQLNSYLPTFGQGTKVEIK
B14: IMPI-059 (antibody, V domains shown)
VH: EVQLVESGGGLIQPGGSLRLSCAASGFTVSSIYMSWVRQAPGKGLEWVSIIYSRGSTDYADSVKGRFTISRDISKNTLYLQMNSLRAEDTAVYYCARDGTMVRGVHAFDIWGQGTMVTVSS
VL: DIQMTQSPPSLSASIGDRVTITCQASQDISNYLNWYQQKPGKAPKLLIYDASNLETGVPSRFSGSGSGTDFTLTISNLQPEDIVTYYCQQYDNLPSSFGQGTKLEIK
B15: IMPI-022 (antibody, V domains shown)
VH: EVQLVESGGGLVQPGRSLRLSCAASGFTFDDYAMHWVRQAPGKGLEWVSGITWNSGSIGYADSVKGRFTISRDNAKNSLYLHMNSLRVEDTALYYCAKDLQGDYYYYGVDVWGQGTTVTVSS
VL: AIQLTQSPSSLSASVGDRVTITCRASQGISSALAWYQQKPGKAPKLLLYDASSLVSGVPSRFSGSRSGTDFTLTISSLQPEDFATYYCQQFISYPLTFGGGTRVEIK
B16: IMPI-027 (antibody, V domains shown)
VH: QVQLQESGPGLVKPSQTLSLTCTVSGGSISSYGYYWNWIRQHPGKGLEWIGYIYYSGSTYYNPSLKSRVTISVDTSKNQLSLRLNSVSAADTAVYYCARDFGGNSNYFDYWGQGTLVTVSS
VL: AIQLTQSPSSLSASVGDRVTITCRTSQGISSALAWYQQKPGKAPKLLIYDASSLESGVPSRFSGSGSGTDFTLTISSLQPEDFATYYCQQFNSYPLTFGGGTKVEIK
B17: IMPI-033 (antibody, V domains shown)
VH: QVQLQESGPGLVKPSQTLSLTCTVSGGSISSYGYYWSWIRQHPGKGLEWIGYIYYSGSTYYNPSLKSRVTMSVDTSKNQLSLRLNSVSAADTAVYYCARDFGGNSNYFDYWGQGTLVTVSS
VL: AIQLTQSPSSLSASVGDRVTITCRASQGISSALAWYQQKPGKAPNLLIYDASSLESGVPSRFSGSGSGTDFTLTISSLQPEDFATYYCQQFNSSPLTFGGGTKVEIK
B18: IMPI-006 (antibody, V domains shown)
VH: QLQLQESGPGLVKPSETLSLTCTVSGGSISNSNYYWGWIRQPPGKGLEWIGSIYYSGRTYYNPSLKSRVTISVDTSKNQFSLKLSSVTAADTAVYYCARMGLLWFGEFYGMDVWGQGTTVTVSS
VL: DIQMTQSPSSLSASVGDRVTITCRASQGISSWLAWYQQKPEKAPKSLIYDASSLQRGVPSRFSGSGSGTDFTLTISSLQPEDFASYYCQQYNSYPLTFGGGTRVEIK
B19: IMPI-055 (antibody, V domains shown)
VH: QVQLVQSGAEVKKPGASVKVSCKASGYTFTSYDINWVRQATGQGLEWMGWMNPNSGNTGYAQKFQGRVTMTRDTSINTAYMELSSLRSEDTAVYFCARGGRYCSDVTCYSGEPFDYWGQGTLVTVSS
VL: EIMLTQSPDFQSVTPKEKVTITCRASQSIGSSLHWYQQKPDQSPKLLIKFASQSISGVPSRFSGSGSGTDFTLTINSLEAEDAAAYYCHQSSSLPHTFGPGTKVEIK
B20: IMPI-032 (antibody, V domains shown)
VH: QVQLQESGPGLVKPSGTLSLTCAVSGGSISSNKWWSWVRQPPGKGLEWIGEIDHSGSTMYNPSLKSRVTISVDKSKNQFSLKLNSVTAADTAVYYCTGEGYNWNYWGQGTRVTVSS
VL: DVVMTQSPLSLPVTLGQTASISCRSSQSLLYTDGNTYLSWFQQRPGQSPRRLIYKVSKWESGVPDRFSGSGSGTDFTLKISRVEAEDVGIYYCMQGTHWPLTFGGGTKVEIK
B21: IMPI-063 (antibody, V domains shown)
VH: EVQLVESGGGVVRPGGSLRLSCAASGFTFDDYGMSWVRQAPGKGLEWVSGIYWNGGSTGYADSVKGRFTISRDNAKNSLYLQMNSLRAEDMALYYCARGVGATDYWGQGTLVTVSS
VL: EIVLTQSPGTLSLSSGERATLACRASESVRGSFLAWYQQKPGQAPRLLIYGASRRATGIPDRFSGSGSGTDFTLTISRLEPEDFAVYYCQQYGNSPMCSFGQGTKLEIK

The record followed here is patent US20250026813A1 (published 2025).

What is called Kd is the concentration at which binding is half-saturated.

The target in the first test is T1, RBD domain of the spike protein of SARS-CoV-2 virus (Acro Biosystems SPD-C52H3) (SARS-CoV-2, UniProt P0DTC2 319-537).
T1 construct: domain: RBD domain
Put plainly: Affinity (SPR) by Octet; antigen not named, taken from the epitope column. Background: Biolayer interferometry detects binding as a change in optical thickness at a sensor tip.
As for B1, the Kd is < 0.1 nM.
The same measure, in the same setting: in the case of B2 it was < 0.1 nM; in that of B3, < 0.1 nM.
For B4, the Kd was < 0.1 nM.
Still for that read-out and setting: in the case of B5 it was < 0.1 nM; in that of B6, < 0.1 nM.
Take B7: the Kd was < 0.1 nM.
Consider B8, for which the Kd was < 0.1 nM.
Consider B9, for which the Kd was < 0.1 nM.
On the same count and under the same terms, in the case of B10 it was < 0.1 nM.

For another test, the target named is T2, S2 subunit of the SARS-CoV-2 spike protein (Sino Biological 40590-V08B), His tag (SARS-CoV-2, UniProt P0DTC2 686-1213).
T2 construct: domain: S2 subunit
Assay: not given
Regarding B11, the “HTRF deltaF” value worked out at 4.3 deltaF.
The same measure, in the same setting: as for B12, the figure is -2 deltaF; as for B13, 13 deltaF.
Still for that read-out and setting: in the case of B14 it was -2.7 deltaF; in that of B15, -9.7 deltaF.
Still for that read-out and setting: as for B16, the figure is 7.5 deltaF; as for B17, -3.6 deltaF; as for B18, 40.7 deltaF.
Consider B19, for which the “HTRF deltaF” value was -10.3 deltaF.
Take B20: the “HTRF deltaF” value was -8 deltaF.
As to B21, the “HTRF deltaF” value came to 411 deltaF.
